Results on seven molecules are retold here after publication PMC8352940 (Nature Communications, 2021).

The target in assay [1] is SARS-CoV-2 RBD-Fc fusion protein (SARS-CoV-2, UniProt P0DTC2). Briefly: ELISA. As to conditions: both partners purified.
The target of assay [2] is SARS-CoV-2 RBD without the Fc fragment (SARS-CoV-2, UniProt P0DTC2). Briefly: ELISA. As to conditions: both partners purified.

B1: nCoVFab1 (Fab, V domains shown)
VH: QVQLVESGGGLVQPGGSLRLSCAASGFTVSSNYMSWVRQAPGKGLEWVSVIYSGGSTYYADSVKGRFTISRDNSKNTLYLQMNSLRAEDTAVYYCARGDGSDDYYYGMDVWGQGTTVTVSS
VL: QSVVTQPPSVSGAQGQRVFISCTGNGANIGMGYDVHWYQQLPGRAPKLLIFGNTNRPSGVPDRFSASRSGTSASLAITGLQTADEADYYCQSYDGNLRASVFGGGTKLTVL
notes: source: E. coli strain HB2151, purified (nickel-nitrilotriacetic acid resin)
Regarding B1, the EC50 (usually the midpoint of the concentration-response curve) in assay [1] is around 16 nM.

B2: nCoVmab1_(gHgL) (antibody, V domains shown)
VH: EVQLVESGGGLVQPGGSLRLSCAASGFTVSSNYMSWVRQAPGKGLEWVSVIYSGGSTYYADSVKGRFTISRDNSKNTLYLQMNSLRAEDTAVYYCARGDGSYYYYYGMDVWGQGTTVTVSS
VL: QSVVTQPPSVSGAPGQRVTISCTGSSSNIGAGYDVHWYQQLPGTAPKLLIYGNSNRPSGVPDRFSGSKSGTSASLAITGLQAEDEADYYCQSYDSSLSGWVFGGGTKLTVL
For B2, the binding result in assay [2] is recorded as “no binding”.

B3: nCoVmab2 (antibody, V domains shown)
VH: EVQLVQSGGGVVQPGRSLRLSCAASGFTVSSNYMSWVRQAPGKGLEWVSVIYSGGSTYYADSVKGRFTISRDNSKNTLYLQMNSLRAEDTAVYYCARGDGSDDYYYGMDVWGQGTTVTVSS
VL: QAVLTQPSSVSGAPGQRVTISCTGSSSNVGAGYDVHWYQQLPGTAPKLLIYGNSNRPSGVPDRFSGSKSGTSASLAITGLQAEDEADYYCQSYDSSLSGSVFGGGTKLTVL
notes: also called nCoVFab2 in IgG1 format; source: 293F cells, purified (Protein A resin)
As for B3, the EC50 in assay [2] was determined as 0.84 nM.

B4: nCoVmab1gFR (antibody, V domains shown)
VH: EVQLVESGGGLVQPGGSLRLSCAASGFTVSSNYMSWVRQAPGKGLEWVSVIYSGGSTYYADSVKGRFTISRDNSKNTLYLQMNSLRAEDTAVYYCARGDGSDDYYYGMDVWGQGTTVTVSS
VL: QSVVTQPPSVSGAPGQRVTISCTGSGANIGMGYDVHWYQQLPGTAPKLLIYGNTNRPSGVPDRFSGSKSGTSASLAITGLQAEDEADYYCQSYDGNLRASVFGGGTKLTVL
For B4, the binding result in assay [2] is “binds”.

B5: nCoVFab2 (Fab, V domains shown)
VH: EVQLVQSGGGVVQPGRSLRLSCAASGFTVSSNYMSWVRQAPGKGLEWVSVIYSGGSTYYADSVKGRFTISRDNSKNTLYLQMNSLRAEDTAVYYCARGDGSDDYYYGMDVWGQGTTVTVSS
VL: QAVLTQPSSVSGAPGQRVTISCTGSSSNVGAGYDVHWYQQLPGTAPKLLIYGNSNRPSGVPDRFSGSKSGTSASLAITGLQAEDEADYYCQSYDSSLSGSVFGGGTKLTVL
notes: as for B1
B5 gave an EC50 in assay [1] of around 63 nM.

B6: nCoVmab1 (antibody, V domains shown)
VH: QVQLVESGGGLVQPGGSLRLSCAASGFTVSSNYMSWVRQAPGKGLEWVSVIYSGGSTYYADSVKGRFTISRDNSKNTLYLQMNSLRAEDTAVYYCARGDGSDDYYYGMDVWGQGTTVTVSS
VL: QSVVTQPPSVSGAQGQRVFISCTGNGANIGMGYDVHWYQQLPGRAPKLLIFGNTNRPSGVPDRFSASRSGTSASLAITGLQTADEADYYCQSYDGNLRASVFGGGTKLTVL
notes: also called nCoVFab1 in IgG1 format; source: 293F cells, purified (Protein A resin)
Take B6: in assay [2], the EC50 worked out at 0.56 nM.

B7: nCoVmab1_(gHmL) (antibody, V domains shown)
VH: EVQLVESGGGLVQPGGSLRLSCAASGFTVSSNYMSWVRQAPGKGLEWVSVIYSGGSTYYADSVKGRFTISRDNSKNTLYLQMNSLRAEDTAVYYCARGDGSYYYYYGMDVWGQGTTVTVSS
VL: QSVVTQPPSVSGAQGQRVFISCTGNGANIGMGYDVHWYQQLPGRAPKLLIFGNTNRPSGVPDRFSASRSGTSASLAITGLQTADEADYYCQSYDGNLRASVFGGGTKLTVL
As to B7, in assay [2], the binding result is “no binding”.
